{
  "source": "patent US20180066318A1",
  "about": "(INSTITUT PASTEUR, published 2018)",
  "binders": {"B1": {"name": "GST fused to the Vav SH3 domain (GST-SH3v) (other, UniProt P15498 782-845, looked up)", "chain": "KYFGTAKARYDFCARDRSELSLKEGDIIKILNKKGQQGWWRGEIYGRVGWFPANYVEEDYSEYC", "notes": "domain: SH3 (C-ter Vav); also called pGEX-4T-SH3 (C-ter Vav); not shown: glutathione S-transferase of vector pGEX-4T"}},
  "target": "T1, in vitro translated HA-tagged NEMO (UniProt Q9Y6K9 1-419)",
  "T1 construct": "Negative control in the pull-down; made in TNT reticulocyte lysate; also called HA-NEMO; not shown: HA tag",
  "T1 sequence (Q9Y6K9 whole entry, the tested form may be a part)": "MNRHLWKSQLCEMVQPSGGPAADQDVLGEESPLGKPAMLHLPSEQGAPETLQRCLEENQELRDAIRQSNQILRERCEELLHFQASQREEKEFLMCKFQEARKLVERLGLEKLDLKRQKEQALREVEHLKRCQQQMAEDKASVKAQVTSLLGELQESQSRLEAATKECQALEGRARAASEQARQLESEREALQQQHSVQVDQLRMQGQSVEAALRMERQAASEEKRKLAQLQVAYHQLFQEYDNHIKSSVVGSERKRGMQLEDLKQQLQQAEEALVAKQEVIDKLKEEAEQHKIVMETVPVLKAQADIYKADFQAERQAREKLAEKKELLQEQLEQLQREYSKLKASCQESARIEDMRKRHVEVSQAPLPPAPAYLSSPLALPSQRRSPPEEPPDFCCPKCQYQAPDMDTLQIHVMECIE",
  "experiment": "GST pull-down of in vitro translated protein, anti-HA blot",
  "from_the_text": "FIGS. 1a-1d: binding of CARMA1 SH3 domain to E-Syt2. GST pull-down assays show direct interaction between E-Syt2 and SH3 domains. Schematic representation of CARMA1 (a) and E-Syt2 (b) mutant constructs. (c) upper panel: pull-down assays of the interactions between CARMA1 SH3 domain (GST-SH3c), Vav SH3 domain (GST-SH3v) or GST and in vitro translated HA-tagged E-Syt2, or NEMO in TNT® reticulocytes lysate systems. Ten percent of the input TNT lysates was also run on the PAGE and immunoblot with anti-HA to determine the relative binding capacity. […] Jurkat T cells were incubated with Raji B cells and coated with medium alone or with SEE. At 10 minutes, cells were fixed and E-SYT2 localized by immunofluorescence and confocal microscopy, using anti-A-SYT2 antibody, as described in the experimental procedure. The corresponding Nomarski images are shown on the bottom panels. Scale Bars represent 1 μm. (d) ESYT2 localized in microclusters Jurkat cells were settle onto glass coverslips coated either with anti-CD3, anti-CD28 or both and fixed 5 min of stimulation. The images of E-Syt2, PKCθ and TCT staining were taken by confocal microscopy.",
  "data": [
    {"binder": "B1", "values": [
      {"measurement": "binding result", "value": "no binding"}
    ]}
  ]
}
